Experiment [1] deals with CA hexamer-2 (HIV-1 | not stated). The experiment in a line: SEC-MALS.
The target of experiment [2] is A14C/E45C disulfide crosslinked CA tubes (HIV-1). The experiment in a line: co-sedimentation.
Experiment [3] concerns the target CA hexamer-2 (HIV-1 | not stated). Put plainly: ITC.

The term Kd denotes the concentration at which binding is half-saturated. Read a low Kd as a tighter complex.

Sequence of NUP153^1401-1475 (P49790 1401-1475): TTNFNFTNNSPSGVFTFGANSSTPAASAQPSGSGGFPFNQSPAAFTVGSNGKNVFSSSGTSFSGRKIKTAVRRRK

In experiment [1], “NUP153^1401-1475 (from UniProt P49790 1401-1475) (domain or fragment)” came in with a stoichiometry N (NUP153^1401-1475 per hexamer-2) of 1. “NUP153^1411-1465 (from UniProt P49790 1411-1464) (domain or fragment)”: the percent bound to CA tubes in experiment [2] was determined as 25%. Substance “NUP153^1465-1475 (from UniProt P49790 1465-1475) (domain or fragment)” displayed a percent bound to CA tubes in experiment [2] of 50%. In experiment [3], “NUP153^1411-1475/1425-1464Δ peptide (25 aa) (from UniProt P49790 1411-1475)” gave a Kd of 800 nM.

The values are drawn from publication doi:10.1101/2020.08.10.245522.
